Target: the molecule itself
Assay: sedimentation of polymers by ultracentrifugation; FtsZ 10 µM, pH 6.5 buffer, with ZapA (10 µM), without DEAE-dextran

B1: FtsZ8 (FtsZ S219L) (natural protein, B. subtilis, UniProt P17865 1-382, looked up)
chain: MLEFETNIDGLASIKVIGVGGGGNNAVNRMIENEVQGVEYIAVNTDAQALNLSKAEVKMQIGAKLTRGLGAGANPEVGKKAAEESKEQIEEALKGADMVFVTAGMGGGTGTGAAPVIAQIAKDLGALTVGVVTRPFTFEGRKRQLQAAGGISAMKEAVDTLIVIPNDRILEIVDKNTPMLEAFREADNVLRQGVQGISDLIATPGLINLDFADVKTIMLNKGSALMGIGIATGENRAAEAAKKAISSPLLEAAIDGAQGVLMNITGGTNLSLYEVQEAADIVASASDQDVNMIFGSVINENLKDEIVVTVIATGFIEQEKDVTKPQRPSLNQSIKTHNQSVPKREPKREEPQQQNTVSRHTSQPADDTLDIPTFLRNRNKRG
notes: FtsZ, Bacillus subtilis, mutant ftsZ8; source: overexpression plasmid pSG5333 (Ptac-ftsZ8, derivative of pCXZ); purified essentially as described [21]
  binding result: binds
